Columns and labels:
[1] = target: T1, Complement Factor H protein (human, UniProt P08603 19-1231); experiment: plate-bound complement activation assay: BSA-DNP coat, bsAb with normal human serum, FH detected
T1 construct: Plasma protein, bought purified or present in normal human serum; also called FH; CFH
Procedure: BsAbs were functionally tested in plate-bound complement activation assays. To focus on the classical pathway, MaxiSorp plates were coated with 50 μL/well of a mixture of IgG (10 μg/mL, IVIg, Sanquin) or IgM (1 μg/mL, Merck, 401799) and BSA-DNP (10 μg/mL) or biotinylated BSA-DNP (10 μg/mL, biotinylated in-house) in coating buffer for 1 hour at 37° C. After every incubation, plates were washed three times with PBS/0.05% Tween 20. Plates were blocked with 100 μL/well PBS/1% BSA for 1 hour at 37° C. Samples containing 5 μg/mL (or a titration from 0.1 to 10 μg/mL) bsAbs, 10 μg/mL FH or C4BP, and 1% normal human serum (NHS) in RPMI were preincubated for 30 minutes at 4° C. After washing, plates were incubated with 50 μL/well samples for 1 hour at 37° C. Next, FH and C4BP were detected as described above for the bispecificity ELISA (using goat anti-human FH and HRP-labeled rabbit anti-goat Ig, or using rabbit anti-human C4BP and HRP-labeled goat anti-rabbit Ig), and C5b-9 was detected using mouse anti-human C5b-9 (Dako, M0777) and HRP-labeled goat anti-mouse Ig (Dako, P0447), all diluted in PTB buffer. Plates were developed by incubating with 50 μL/well ABTS containing 1:2000 diluted H₂O₂, and read at 415 nm using a microplate reader. […]

C4b-binding protein = target: T2, C4b-binding protein (human, UniProt P04003 49-597; P20851 18-252); experiment: plate-bound complement activation assay: BSA-DNP coat, bsAb with normal human serum, C4BP detected
T2 construct: also called C4BP
T2 sequence (looked up) 1: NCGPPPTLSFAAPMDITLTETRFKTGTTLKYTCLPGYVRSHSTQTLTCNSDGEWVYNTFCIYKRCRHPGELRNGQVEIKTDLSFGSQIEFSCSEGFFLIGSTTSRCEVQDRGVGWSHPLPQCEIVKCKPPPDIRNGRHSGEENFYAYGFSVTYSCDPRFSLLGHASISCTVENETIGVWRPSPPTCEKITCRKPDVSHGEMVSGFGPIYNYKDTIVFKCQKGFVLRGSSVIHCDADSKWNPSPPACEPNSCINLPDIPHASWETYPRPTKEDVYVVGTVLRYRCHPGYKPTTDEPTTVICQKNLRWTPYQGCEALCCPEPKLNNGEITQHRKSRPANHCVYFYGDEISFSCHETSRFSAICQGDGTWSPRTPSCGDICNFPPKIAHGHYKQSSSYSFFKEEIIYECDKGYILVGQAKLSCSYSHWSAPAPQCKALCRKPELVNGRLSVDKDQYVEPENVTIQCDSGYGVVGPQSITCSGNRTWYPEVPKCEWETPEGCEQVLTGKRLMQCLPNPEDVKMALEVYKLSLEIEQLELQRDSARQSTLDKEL
T2 sequence (looked up) 2: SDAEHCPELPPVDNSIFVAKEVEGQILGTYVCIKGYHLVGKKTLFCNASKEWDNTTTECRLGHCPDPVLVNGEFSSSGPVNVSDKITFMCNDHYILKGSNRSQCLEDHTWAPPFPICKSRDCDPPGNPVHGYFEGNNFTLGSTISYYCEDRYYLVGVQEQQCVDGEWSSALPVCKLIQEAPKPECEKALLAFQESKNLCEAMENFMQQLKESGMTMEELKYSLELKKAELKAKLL
Procedure: BsAbs were functionally tested in plate-bound complement activation assays. To focus on the classical pathway, MaxiSorp plates were coated with 50 μL/well of a mixture of IgG (10 μg/mL, IVIg, Sanquin) or IgM (1 μg/mL, Merck, 401799) and BSA-DNP (10 μg/mL) or biotinylated BSA-DNP (10 μg/mL, biotinylated in-house) in coating buffer for 1 hour at 37° C. After every incubation, plates were washed three times with PBS/0.05% Tween 20. Plates were blocked with 100 μL/well PBS/1% BSA for 1 hour at 37° C. Samples containing 5 μg/mL (or a titration from 0.1 to 10 μg/mL) bsAbs, 10 μg/mL FH or C4BP, and 1% normal human serum (NHS) in RPMI were preincubated for 30 minutes at 4° C. After washing, plates were incubated with 50 μL/well samples for 1 hour at 37° C. Next, FH and C4BP were detected as described above for the bispecificity ELISA (using goat anti-human FH and HRP-labeled rabbit anti-goat Ig, or using rabbit anti-human C4BP and HRP-labeled goat anti-rabbit Ig), and C5b-9 was detected using mouse anti-human C5b-9 (Dako, M0777) and HRP-labeled goat anti-mouse Ig (Dako, P0447), all diluted in PTB buffer. Plates were developed by incubating with 50 μL/well ABTS containing 1:2000 diluted H₂O₂, and read at 415 nm using a microplate reader.

T1 sequence (P08603 19-1231 limits assumed): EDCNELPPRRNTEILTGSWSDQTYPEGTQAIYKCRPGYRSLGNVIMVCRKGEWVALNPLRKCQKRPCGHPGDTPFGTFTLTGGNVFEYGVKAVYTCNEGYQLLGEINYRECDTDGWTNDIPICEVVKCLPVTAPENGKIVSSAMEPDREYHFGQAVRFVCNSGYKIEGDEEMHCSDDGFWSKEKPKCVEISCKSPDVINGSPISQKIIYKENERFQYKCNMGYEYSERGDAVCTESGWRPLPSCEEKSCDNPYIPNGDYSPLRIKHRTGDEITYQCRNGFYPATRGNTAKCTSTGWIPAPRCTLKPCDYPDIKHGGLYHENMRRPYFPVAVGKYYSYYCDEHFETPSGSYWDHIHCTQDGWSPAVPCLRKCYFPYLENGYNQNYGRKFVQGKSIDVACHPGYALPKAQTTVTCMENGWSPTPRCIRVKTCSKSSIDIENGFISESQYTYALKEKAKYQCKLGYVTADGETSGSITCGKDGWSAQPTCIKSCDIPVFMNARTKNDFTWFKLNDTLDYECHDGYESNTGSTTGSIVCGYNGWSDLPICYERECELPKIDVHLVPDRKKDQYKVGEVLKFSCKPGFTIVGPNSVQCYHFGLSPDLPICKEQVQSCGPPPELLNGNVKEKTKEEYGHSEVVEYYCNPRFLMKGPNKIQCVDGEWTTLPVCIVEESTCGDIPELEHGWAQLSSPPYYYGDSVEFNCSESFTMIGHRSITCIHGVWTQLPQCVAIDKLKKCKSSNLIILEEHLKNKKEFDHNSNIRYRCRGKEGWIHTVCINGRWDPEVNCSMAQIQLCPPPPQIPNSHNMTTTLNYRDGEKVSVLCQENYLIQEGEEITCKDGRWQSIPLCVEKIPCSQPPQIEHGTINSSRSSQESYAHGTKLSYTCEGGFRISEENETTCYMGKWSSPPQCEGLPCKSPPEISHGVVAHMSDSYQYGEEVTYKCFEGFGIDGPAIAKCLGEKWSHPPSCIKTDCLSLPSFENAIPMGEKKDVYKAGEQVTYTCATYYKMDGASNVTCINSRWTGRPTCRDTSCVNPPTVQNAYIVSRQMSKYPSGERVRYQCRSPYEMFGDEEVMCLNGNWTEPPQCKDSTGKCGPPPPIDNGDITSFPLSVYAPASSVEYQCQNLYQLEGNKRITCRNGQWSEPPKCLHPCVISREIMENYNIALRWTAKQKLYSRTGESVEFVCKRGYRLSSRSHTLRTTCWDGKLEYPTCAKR

B1: Anti-HIV F405L LALAPG, Anti-DNP K409R LALAPG (bispecific antibody, human IgG1, kappa, L234A L235A)
heavy 1: QVQLVQSGAEVKKPGASVKVSCQASGYRFSNFVIHWVRQAPGQRFEWMGWINPYNGNKEFSAKFQDRVTFTADTSANTAYMELRSLRSADTAVYYCARVGPYSWDDSPQDNYYMDVWGKGTTVIVSSASTKGPSVFPLAPSSKSTSGGTAALGCLVKDYFPEPVTVSWNSGALTSGVHTFPAVLQSSGLYSLSSVVTVPSSSLGTQTYICNVNHKPSNTKVDKRVEPKSCDKTHTCPPCPAPEAAGGPSVFLFPPKPKDTLMISRTPEVTCVVVDVSHEDPEVKFNWYVDGVEVHNAKTKPREEQYNSTYRVVSVLTVLHQDWLNGKEYKCKVSNKALGAPIEKTISKAKGQPREPQVYTLPPSREEMTKNQVSLTCLVKGFYPSDIAVEWESNGQPENNYKTTPPVLDSDGSFLLYSKLTVDKSRWQQGNVFSCSVMHEALHNHYTQKSLSLSPGK
light 1: EIVLTQSPGTLSLSPGERATFSCRSSHSIRSRRVAWYQHKPGQAPRLVIHGVSNRASGISDRFSGSGSGTDFTLTITRVEPEDFALYYCQVYGASSYTFGQGTKLERKRTVAAPSVFIFPPSDEQLKSGTASVVCLLNNFYPREAKVQWKVDNALQSGNSQESVTEQDSKDSTYSLSSTLTLSKADYEKHKVYACEVTHQGLSSPVTKSFNRGEC
heavy 2: DVRLQESGPGLVKPSQSLSLTCSVTGYSITNSYYWNWIRQFPGNKLEWMVYIGYDGSNNYNPSLKNRISITRDTSKNQFFLKLNSVTTEDTATYYCARATYYGNYRGFAYWGQGTLVTVSAASTKGPSVFPLAPSSKSTSGGTAALGCLVKDYFPEPVTVSWNSGALTSGVHTFPAVLQSSGLYSLSSVVTVPSSSLGTQTYICNVNHKPSNTKVDKRVEPKSCDKTHTCPPCPAPEAAGGPSVFLFPPKPKDTLMISRTPEVTCVVVDVSHEDPEVKFNWYVDGVEVHNAKTKPREEQYNSTYRVVSVLTVLHQDWLNGKEYKCKVSNKALGAPIEKTISKAKGQPREPQVYTLPPSREEMTKNQVSLTCLVKGFYPSDIAVEWESNGQPENNYKTTPPVLDSDGSFFLYSRLTVDKSRWQQGNVFSCSVMHEALHNHYTQKSLSLSPGK
light 2: DIRMTQTTSSLSASLGDRVTISCRASQDISNYLNWYQQKPDGTVKLLIYYTSRLHSGVPSRFSGSGSGTDYSLTISNLEQEDIATYFCQQGNTLPWTFGGGTKLEIKRTVAAPSVFIFPPSDEQLKSGTASVVCLLNNFYPREAKVQWKVDNALQSGNSQESVTEQDSKDSTYSLSSTLTLSKADYEKHKVYACEVTHQGLSSPVTKSFNRGEC
notes: also called anti-HIV x anti-DNP
binding result [1]: no binding
binding result (C4b-binding protein): no binding

Source: patent US20260258117A1 (ACADEMISCH ZIEKENHUIS LEIDEN H O D N LUMC, published 2026)
